± gives the uncertainty stated by the source.
B1: POU domain, class 3, transcription factor 2, residues 262 to 338; numbered along this chain, P20265 (parent)
chain: EDTPTSDDLEQFAKQFKQRRIKLGFTQADVGLALGTLYGNVFSQTTICRFEALQLSFKNMCKLKPLLNKWLEEADSS

Variants of: B1
Assay: abundance fitness (aPCA) (normalised: wild type 0, dead -1); higher = more abundant; growth selection in yeast, the domain comes from the species named
Conditions: Homo sapiens
EDTPTSDDLEQFAKQFKQRRIKLGFTQADVGLALGTLYGNVFSQTTICRFEALQLSFKNMCKLKPLLNKYLEEADSS [W70Y] showed an abundance fitness of -0.381 ± 0.099.
EDTPTSDDLEQFAKQFKQRRIKLGFTQADVGLALGTLYGNVFSQTTICRFEALQLSFKNMCKLKPLLNKTLEEADSS [W70T] showed an abundance fitness of -1.06 ± 0.18.
EDTPTSDDLEQFAKQFKQRRIKLGFTQADVGLALGTLYGNVFSQTTICRFEALQLSFKNMCKLKPLLNKPLEEADSS [W70P] showed an abundance fitness of -0.853 ± 0.11.
With EDTPTSDDLEQFAKQFKQRRIKLGFTQADVGLALGTLYGNVFSQTTICRFEALQLSFKNMCKLKPLLNKRLEEADSS [W70R] the abundance fitness was -0.649 ± 0.039.
In the case of EDTPTSDDLEQFAKQFKQRRIKLGFTQADVGLALGTLYGNVFSQTTICRFEALQLSFKNMCKLKPLLNKSLEEADSS [W70S], the abundance fitness is reported as -0.742 ± 0.065.
With EDTPTSDDLEQFAKQFKQRRIKLGFTQADVGLALGTLYGNVFSQTTICRFEALQLSFKNMCKLKPLLNKNLEEADSS [W70N] the abundance fitness was -0.358 ± 0.18.
EDTPTSDDLEQFAKQFKQRRIKLGFTQADVGLALGTLYGNVFSQTTICRFEALQLSFKNMCKLKPLLNKWLPEADSS [E72P] showed an abundance fitness of -0.655 ± 0.11.
EDTPTSDDLEQFAKQFKQRRIKLGFTQADVGLALGTLYGNVFSQTTICRFEALQLSFKNMCKLKPLLNKWLLEADSS [E72L] gave an abundance fitness of 0.004 ± 0.035.
EDTPTSDDLEQFAKQFKQRRIKLGFTQADVGLALGTLYGNVFSQTTICRFEALQLSFKNMCKLKPLLNKWLFEADSS [E72F] gave an abundance fitness of -0.191 ± 0.066.
With EDTPTSDDLEQFAKQFKQRRIKLGFTQADVGLALGTLYGNVFSQTTICRFEALQLSFKNMCKLKPLLNKWLVEADSS [E72V] the abundance fitness was 0.017 ± 0.035.
Variant EDTPTSDDLEQFAKQFKQRRIKLGFTQADVGLALGTLYGNVFSQTTICRFEALQLSFKNMCKLKPLLNKWLGEADSS [E72G] has an abundance fitness of -0.178 ± 0.033.
Work on EDTPTSDDLEQFAKQFKQRRIKLGFTQADVGLALGTLYGNVFSQTTICRFEALQLSFKNMCKLKPLLNKWLNEADSS [E72N] yielded an abundance fitness of -0.094 ± 0.063.
For EDTPTSDDLEQFAKQFKQRRIKLGFTQADVGLALGTLYGNVFSQTTICRFEALQLSFKNMCKLKPLLNKWLSEADSS [E72S], the abundance fitness was -0.13 ± 0.038.
With EDTPTSDDLEQFAKQFKQRRIKLGFTQADVGLALGTLYGNVFSQTTICRFEALQLSFKNMCKLKPLLNKWLIEADSS [E72I] the abundance fitness was -0.102 ± 0.058.
EDTPTSDDLEQFAKQFKQRRIKLGFTQADVGLALGTLYGNVFSQTTICRFEALQLSFKNMCKLKPLLNKWLMEADSS [E72M] showed an abundance fitness of -0.117 ± 0.054.
EDTPTSDDLEQFAKQFKQRRIKLGFTQADVGLALGTLYGNVFSQTTICRFEALQLSFKNMCKLKPLLNKWLWEADSS [E72W] gave an abundance fitness of -0.177 ± 0.043.
With EDTPTSDDLEQFAKQFKQRRIKLGFTQADVGLALGTLYGNVFSQTTICRFEALQLSFKNMCKLKPLLNKWLKEADSS [E72K] the abundance fitness was -0.12 ± 0.087.
Variant EDTPTSDDLEQFAKQFKQRRIKLGFTQADVGLALGTLYGNVFSQTTICRFEALQLSFKNMCKLKPLLNKWLREADSS [E72R] has an abundance fitness of -0.068 ± 0.03.
In the case of EDTPTSDDLEQFAKQFKQRRIKLGFTQADVGLALGTLYGNVFSQTTICRFEALQLSFKNMCKLKPLLNKWLQEADSS [E72Q], the abundance fitness is reported as 0.003 ± 0.051.
EDTPTSDDLEQFAKQFKQRRIKLGFTQADVGLALGTLYGNVFSQTTICRFEALQLSFKNMCKLKPLLNKWLCEADSS [E72C] gave an abundance fitness of -0.042 ± 0.056.
Work on EDTPTSDDLEQFAKQFKQRRIKLGFTQADVGLALGTLYGNVFSQTTICRFEALQLSFKNMCKLKPLLNKWLTEADSS [E72T] yielded an abundance fitness of -0.073 ± 0.042.
Variant EDTPTSDDLEQFAKQFKQRRIKLGFTQADVGLALGTLYGNVFSQTTICRFEALQLSFKNMCKLKPLLNKWLYEADSS [E72Y] has an abundance fitness of -0.217 ± 0.085.
For EDTPTSDDLEQFAKQFKQRRIKLGFTQADVGLALGTLYGNVFSQTTICRFEALQLSFKNMCKLKPLLNKWLAEADSS [E72A], the abundance fitness was -0.017 ± 0.037.
EDTPTSDDLEQFAKQFKQRRIKLGFTQADVGLALGTLYGNVFSQTTICRFEALQLSFKNMCKLKPLLNKWREEADSS [L71R] showed an abundance fitness of -0.427 ± 0.077.
Work on EDTPTSDDLEQFAKQFKQRRIKLGFTQADVGLALGTLYGNVFSQTTICRFEALQLSFKNMCKLKPLLNKWFEEADSS [L71F] yielded an abundance fitness of -0.699 ± 0.22.
In the case of EDTPTSDDLEQFAKQFKQRRIKLGFTQADVGLALGTLYGNVFSQTTICRFEALQLSFKNMCKLKPLLNKWCEEADSS [L71C], the abundance fitness is reported as -0.847 ± 0.37.
In the case of EDTPTSDDLEQFAKQFKQRRIKLGFTQADVGLALGTLYGNVFSQTTICRFEALQLSFKNMCKLKPLLNKWKEEADSS [L71K], the abundance fitness is reported as -0.559 ± 0.2.
For EDTPTSDDLEQFAKQFKQRRIKLGFTQADVGLALGTLYGNVFSQTTICRFEALQLSFKNMCKLKPLLNKWAEEADSS [L71A], the abundance fitness was -0.504 ± 0.16.
EDTPTSDDLEQFAKQFKQRRIKLGFTQADVGLALGTLYGNVFSQTTICRFEALQLSFKNMCKLKPLLNKWYEEADSS [L71Y] showed an abundance fitness of -0.168 ± 0.17.
EDTPTSDDLEQFAKQFKQRRIKLGFTQADVGLALGTLYGNVFSQTTICRFEALQLSFKNMCKLKPLLNKWEEEADSS [L71E] showed an abundance fitness of -0.598 ± 0.49.
Work on EDTPTSDDLEQFAKQFKQRRIKLGFTQADVGLALGTLYGNVFSQTTICRFEALQLSFKNMCKLKPLLNKWMEEADSS [L71M] yielded an abundance fitness of 0.067 ± 0.12.
EDTPTSDDLEQFAKQFKQRRIKLGFTQADVGLALGTLYGNVFSQTTICRFEALQLSFKNMCKLKPLLNKWVEEADSS [L71V] gave an abundance fitness of -0.089 ± 0.12.
EDTPTSDDLEQFAKQFKQRRIKLGFTQADVGLALGTLYGNVFSQTTICRFEALQLSFKNMCKLKPLLNKWWEEADSS [L71W] gave an abundance fitness of -0.465 ± 0.12.
Variant EDTPTSDDLEQFAKQFKQRRIKLGFTQADVGLALGTLYGNVFSQTTICRFEALQLSFKNMCKLKPLLNKWGEEADSS [L71G] has an abundance fitness of -0.445 ± 0.088.
EDTPTSDDLEQFAKQFKQRRIKLGFTQADVGLALGTLYGNVFSQTTICRFEALQLSFKNMCKLKPLLNKWSEEADSS [L71S] gave an abundance fitness of -0.207 ± 0.075.
EDTPTSDDLEQFAKQFKQRRIKLGFTQADVGLALGTLYGNVFSQTTICRFEALQLSFKNMCKLKPLLNKWIEEADSS [L71I] showed an abundance fitness of -0.422 ± 0.37.

Reference: the Human Domainome abundance scans (Beltran et al. 2025)
